From patent US20210130473A1 (SILVERBACK THERAPEUTICS, published 2021)
Changes are numbered by the printed parent chain. Names may count otherwise.

T1: rat ASGR1 on CHO-S cells (rat, UniProt P02706 1-284)
T1 construct: whole, on cells
T1 sequence (looked up): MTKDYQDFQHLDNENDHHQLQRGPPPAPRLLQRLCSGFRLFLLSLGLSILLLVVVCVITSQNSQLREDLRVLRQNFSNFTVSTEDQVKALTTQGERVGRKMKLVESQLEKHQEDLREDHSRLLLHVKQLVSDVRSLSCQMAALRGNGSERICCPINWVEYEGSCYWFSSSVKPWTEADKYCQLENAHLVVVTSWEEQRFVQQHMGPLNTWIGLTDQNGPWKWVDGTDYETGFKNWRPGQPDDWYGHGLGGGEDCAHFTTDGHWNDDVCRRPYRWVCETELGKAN

T2: human ASGR1 (asialoglycoprotein receptor 1) on cells (human, UniProt P07306 1-291)
T2 construct: whole, on cells; also called HepG2 cells; CHO-S cells transfected with human ASGR1 full length DNA
T2 sequence (looked up): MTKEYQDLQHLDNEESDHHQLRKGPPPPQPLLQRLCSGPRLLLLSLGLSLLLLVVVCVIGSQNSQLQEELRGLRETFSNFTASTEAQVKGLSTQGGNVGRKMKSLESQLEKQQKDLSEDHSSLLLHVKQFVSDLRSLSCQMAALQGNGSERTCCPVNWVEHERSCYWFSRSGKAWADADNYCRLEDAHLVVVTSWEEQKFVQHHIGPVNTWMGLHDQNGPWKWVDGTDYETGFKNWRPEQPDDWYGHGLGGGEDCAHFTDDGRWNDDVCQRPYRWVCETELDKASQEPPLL

T3: His-tagged human ASGR1 extracellular domain (human, UniProt P07306 62-291)
T3 construct: extracellular domain; also called His-tagged human ASGR1 ECD; human ASGR1 ECD; not shown: His tag
T3 sequence (looked up): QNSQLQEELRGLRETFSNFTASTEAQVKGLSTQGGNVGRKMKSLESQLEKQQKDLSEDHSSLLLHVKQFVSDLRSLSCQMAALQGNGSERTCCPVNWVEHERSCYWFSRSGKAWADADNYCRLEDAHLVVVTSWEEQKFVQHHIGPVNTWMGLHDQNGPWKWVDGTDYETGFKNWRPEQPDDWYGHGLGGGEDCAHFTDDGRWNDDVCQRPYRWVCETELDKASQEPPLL

T4: human Fc-fused human ASGR1 extracellular domain (human, UniProt P07306 62-291)
T4 construct: extracellular domain; also called human Fc-fused ASGR1 ECD; not shown: human Fc
T4 sequence (looked up): T3 sequence (looked up)

T5: rat CLEC10A (rat, UniProt P49301 59-306, limits assumed)
T5 construct: the assay is not described
T5 sequence (looked up): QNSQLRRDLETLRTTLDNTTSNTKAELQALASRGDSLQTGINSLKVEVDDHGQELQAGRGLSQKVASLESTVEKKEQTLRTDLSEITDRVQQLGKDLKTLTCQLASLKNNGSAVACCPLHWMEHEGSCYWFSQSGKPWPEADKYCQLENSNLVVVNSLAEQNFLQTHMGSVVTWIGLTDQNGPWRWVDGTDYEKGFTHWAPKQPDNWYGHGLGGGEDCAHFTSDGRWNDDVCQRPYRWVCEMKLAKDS

B1: J4F (antibody, V domains shown)
VH: QVQLQQSGDDLVKPGASVKLSCKASGYTFTSYWINWIKQRPGQGLEWIGRIVPGSGSTYYNEMFKDKATLTVDTSSSTAYIQLSSLSSEDSAVYFCARKPNFDVWGAGTTVTVSS
VL: DIVMTQSQKFMSTSVGDRVSVTCKASQNVGTNVAWYQQKPGQSPKAVIYSASYRFSGVPDRLTGSGSGTDFTLTITNVQSEDLAEYFCQQYNSYPLTFGAGTKLELK
notes: parental mouse hybridoma antibody; also called mAb J4F
B2: hzL4L-7 (antibody, IgG1, V domains shown)
VH: QVQLQESGPGLVKPSQTLSLTCTVSGYSISSDYAWNWIRQHPGKGLEWIGYISYSGSTRYNPSLKSRVTITRDTSKNQFSLKLSSVTAADTAVYYCARRYRYDEGYGMDYWGQGTTVTVSS
VL: DIQMTQSPSSLSASVGDRVTITCRASENIYSNLAWYQQKPGKAPKLLIYAATNLADGVPSRFSGSGSGTDFTLTISSLQPEDFATYYCQHFWGTPPWTFGGGTKVEIK
notes: IgG1, kappa
B3: L4L (antibody, V domains shown)
VH: DVQLQESGPGLVKPSQSLSLTCTVTGYSITSDYAWNWIRQFPGNKLEWMGYISYSGSTRYNPSLKSRISITRDTSKNQFFLQLNSVTTEDTATYYCARRYRYDEGYGMDYWGQGTSVTVSS
VL: DIQMTQSPASLSVFVGEIVTITCRASENIYSNLAWYQQKQGKSPQLLVYAATNLADGVPSRFTGSGSGTQFSLKINSLQSEDFGNYYCQHFWGTPPWTFGGGTKLEIK
notes: parental mouse hybridoma antibody; also called mAb L4L
B4: G2D (antibody, V domains shown)
VH: EVQLQQSGPELVKPGASVKISCKASGYSFTGYYMHWVKQSHVKSLEWIGRINPNNGATNYNQNFKDKASLTVDKSSSTAYMEFHSLTSEDSAVYYCTSVNFYYWGQGTTLTVSS
VL: DIKMTQSPSSMYASLGERVTITCKASQVINSYLSWFQQKPGKSPETLIYRANTLVDGVPSRFSGSGSGQDYSLTISSLEYEDLGIYYCLQYAEFPYTFGGGTKLEIK
notes: parental mouse hybridoma antibody; also called mAb G2D
B5: K2E (antibody, V domains shown)
VH: QVQLQQSAAELARPGASVKMSCKASGYTFTSYTMHWVKQRPGQGLEWIGYISPSSGYTEYNQKFKDKTTLTADKSSSTAYMQLSSLTSEDSAVYYCARKFDYWGQGTTLTVSS
VL: B4 VL with V28D, E45K, T53R, Y71F, L83M, A92D, Y96F, G100S
notes: parental mouse hybridoma antibody; also called mAb K2E
B6: H8K (antibody, V domains shown)
VH: DVQLQESGPGLVKPSQSLSLTCTVTGFSITSDYAWNWIRQFPGNQLEWMGYRSYRGSTSYNPSLKSRISITRDTSKNQFFLQLNSVTTEDTATYYCARRGYYGSSSHWYFDVWGAGTTVTVSS
VL: DIQMTQSPASLSASVGETVTITCRASENIYSYLAWYQQKQGKSPQLLVYNAKTLAEGVPSRFSGSGSGTQFSLKINSLQPEDFGSYYCQHHYGTPLTFGSGTKLELK
notes: parental mouse hybridoma antibody; also called mAb H8K
B7: hzH8K-1 (antibody, IgG1, V domains shown)
VH: QVQLQESGPGLVKPSQTLSLTCTVSGGSISSDYAWNWIRQHPGKGLEWIGYRSYRGSTSYNPSLKSRVTISVDTSKNQFSLKLSSVTAADTAVYYCARRGYYGSSSHWYFDVWGQGTTVTVSS
VL: DIQMTQSPSSLSASVGDRVTITCRASENIYSYLAWYQQKPGKAPKLLIYNAKTLAEGVPSRFSGSGSGTDFTLTISSLQPEDFATYYCQHHYGTPLTFGGGTKVEIK
notes: IgG1, kappa

Tests used:
rat ASGR1 on CHO-S cells [1] = target: T1, rat ASGR1 on CHO-S cells; test: Guava flow cytometry on CHO-S cells expressing rat ASGR1
Protocol: (§1) Anti-human ASGR1 antibodies of this disclosure were examined for cross-reactivity with Cynomolgus macaque and rat ASGR1. Briefly, sequence encoding Cynomolgus macaque or rat ASGR1 was transiently transfected into CHO-S cells. Transfected cells were before performing cell binding assay. A total of about 1.5×10⁴ transfected cells/well were added to 96-well V-bottom assay plate, incubated at 37° C., 5% CO2 for 48-72 hours, and then washed with culture medium before adding 100 μl of each ASGR1 antibody at different concentrations starting from 100 nM and 3-fold dilutions to a total of eight wells. The cells with antibody were incubated for 40 minutes at 4° C., then washed three times with 200 μl of fresh culture medium. To each well was added 50 μl PE conjugated goat anti-human Fc (SouthemBiotech) at 1:200 dilution in culture medium and then incubated at 4° C. for 20 minutes. After washing the plate once, the treated cells were resuspended in 200 μl culture medium and then the stained cells were analyzed on GUAVA® using Incyte software.

[2] = target: T6, Cynomolgus macaque ASGR1 on CHO-S cells (Cynomolgus macaque); test: Guava flow cytometry on CHO-S cells expressing cynomolgus ASGR1
T6 construct: whole, on cells; also called Cynomologous ASGR1
Protocol: as §1

rat ASGR1 on CHO-S cells [3] = target: T1, rat ASGR1 on CHO-S cells; test: Guava flow cytometry on CHO-S cells expressing rat ASGR1 (repeat of Table 16)
Protocol: as §1, with “Briefly,” for “Anti-human ASGR1 antibodies of this disclosure were examined for cross-reactivity with Cynomolgus macaque and rat ASGR1. Briefly,”, “(SouthernBiotech)” for “(SouthemBiotech)”
as §1

[4] = target: T2, human ASGR1 (asialoglycoprotein …); test: flow cytometry on HepG2 cells, anti-human IgG PE secondary, MFI (Geo Mean)
Protocol: Briefly, 5×10⁴ HepG2 cells/well were contacted with titrating concentrations of anti-ASGR1 antibodies in FACS Buffer (FB: PBS+2% FBS+1 mM CaCl₂)) for 30 minutes at 4° C. Cells were washed twice in FB, then incubated in anti-human IgG PE secondary for 30 minutes at 4° C. Cells were washed twice in FB, then analyzed by flow cytometry.

[5] = target: T6, Cynomolgus macaque ASGR1 on CHO-S cells; test: Guava flow cytometry on CHO-S cells expressing cynomolgus ASGR1 (repeat of Table 15)
Protocol: as §1

rat ASGR1 on CHO-S cells [6] = target: T1, rat ASGR1 on CHO-S cells; test: Guava flow cytometry on CHO-S cells expressing rat ASGR1; remark: listed apart in the source
[7] = target: T3, His-tagged human ASGR1 extracellular …; test: Octet, His-tagged ASGR1 ECD on Penta-His sensors; N = association not sensitive to Ca2+ (binds also without calcium)
Protocol: Analysis of ASGR1 antibody binding to human ASGR1 ECD was performed using the OCTET® Red 96 instrument and analyzed using the OCTET®Data Analysis Software 9.0 (ForteBio). His-tagged human ASGR1 ECD was immobilized to OCTET® Penta-His biosensors and ASGR1 antibodies were subjected to avidity binding under the conditions described above. Association with the ASGR1 ECD was measured by the rate of and increase in magnitude of signal response at a given antibody concentration. Dissociation from the ASGR1 ECD was measured the rate of loss in signal upon removal of the antibody and further incubation with or without Ca²⁺.

[8] = target: T4, human Fc-fused human ASGR1 …; test: Octet binning, hFc-ASGR1 ECD on AHC sensors; competitor: ASGR1 mAb-A
Protocol: The interactions of the anti-ASGR1 antibodies of this disclosure and control mAbs with human ASGR1 ECD were analyzed using the OCTET® Data Analysis Software 9.0 (ForteBio).

rat CLEC10A = target: T5, rat CLEC10A; test: not described

Binder	EC50 (rat ASGR1 on CHO-S cells [1])	EC50 [2]	EC50 (rat ASGR1 on CHO-S cells [3])	EC50 (read off the curve) [4]	EC50 [5]	binding result (rat ASGR1 on CHO-S cells [6])	binding result [7]	binding result [8]	binding result [4]	binding result (rat CLEC10A)
B1	0.62 nM	0.67 nM	0.62 nM	~0.3 µg/mL	0.67 nM	–	–	–	–	–
B2	–	0.39 nM	–	–	0.39 nM	no binding (tested: 100 nM highest concentration)	binds	–	–	–
B3	–	–	–	–	–	–	–	binds	binds	–
B4	0.37 nM	0.47 nM	0.37 nM	~0.2 µg/mL	0.47 nM	–	–	–	–	no binding
B5	0.52 nM	0.68 nM	0.52 nM	~0.3 µg/mL	0.68 nM	–	–	–	–	–
B6	–	–	–	–	–	–	–	binds	binds	–
B7	–	0.66 nM	–	–	0.66 nM	no binding (tested: 100 nM highest concentration)	–	–	–	–
